Assay results: the nanobody polyreactivity screen of Harvey et al. (2022)

Assay: yeast display, Sf9 membrane polyspecificity reagent, FACS + sequencing; frameworks hold sequencing errors
Method in brief: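 Using colony PCR, genes from sorted yeast display clones were amplified, then sequenced on MiSeq at 2 × 250 and filtered by CDR length. The clones had been stained with 10% biotinylated, detergent-solubilized Sf9 membrane reagent for 1 hour at 4 °C and sorted by FACS into low and high (top ~1%) gates on anti-HA and streptavidin fluorescence. Polyreactivity labels come from the gate of origin.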

Sequence	polyreactivity (PSR sort gate)
QVQLVESGGGLVQAGGSLRLSCAASGRIFRVYAMGWYRQAPGKERELVAAISWSGGRTYYADSVKGRFTISRDNAKNTVYLQMNSLKPEDTAVYYCAAVRYERGLWSDYWGQGTQVTVSS	high polyreactivity
QVQLVETGGGLVQAGGSLRLSCAASGLTFYVYAMGWYRQAPGKERELVAAISSGGRTYYADSVKGRFTISRDNAKNTVYLQMNSLKPEDTAVYYCAAVRHRNYGYWGQGTQVTVSS	high polyreactivity
QVQLVESGGGLVQAGGSLRLSCAAAGSTFRYNDMGWYRQAPGKERELVAAITRSGGSTYYADSVKGRFTISRDTAKNTVYLQMNSLKPEDTAVYYCNRGLRYVLAEDIAVPRVPEYYWGQGTQVTVSS	low polyreactivity
QVQLVESGGGLVQAGGSLRLSCAASGSIFPDYAMGWYRQAPGKERELVAAITWRDDSTYYADSVKGRFTISRDNAKNTVYLQMNSLKPEDTAVYYCNASALDPLFAKDDYWGQGTQVTVSS	low polyreactivity
QVQLVESGGGLVQAGGSLRLSCAASGGTFRAYVMGWYRQAPGKERELVAAISRSGTRTYYADSVKGRFTISRDNAKNTVYLQMNSLKPEDTAVYYCAAQAGVYYDYEYWGQGTLVTVSS	high polyreactivity
QVQLVESGGGLVQAGGSLRLSCAASGFIFYRYAMGWYRLAPGKERELVAAISSSGGSTYYADSVKGRFTISRDYAKYSVYLQMNSLKPEDTAVYYCAVDYWGQGTQVTVSS	high polyreactivity
QVQLVESGGGLVQAGGSLRLSCAASGITFSYYAMGWYRPAPGKERELVAAINSGGGSTYYADSVKGRFTISRDNAKNTVFLQMNSLKPDDTAVYYCAARYRSRYEYYYDRDYWGQGTQVSVSS	low polyreactivity
QVQLVESGGGLVQAGGSLRLSCASSGITFRYYAMGWYRQAPGKERELVAAITWSGGSTYYADSVKGRFTISRDNAKNTVYLQMNSLKPEDTAVYYCAADAYVLFYGDWYEFDYWGQGTQVTVSS	high polyreactivity
QVQLVESGGGLVQAGGSLRLSCAASGGIFSTYTMGWSRQAPGKERELVAAITTGNSTYYADSVKGRFTISRDNAKNTVYLQMNSLKPEDTAVYYCAAFAASRDYYRRLIHDGYDYWGQGTQVTVSS	low polyreactivity
QVQLVESGGGLVQAGGILRLSCAASGFIFWYNAMGWYRQAPGKERELVARINIGGTTSYADSVKGRFTISRDNAKNNVYLQMNSLKREDTAVYYCNAVQGRQYDYWGQGTQVNVSS	low polyreactivity
QVQLGESGGGLVQAGGSLRLSCAASGSIFSDYAMGWYRQAPGKERELVAAIRYRGGRTYYADSVKGRFTISRDNAKNTVYLQMNSLKPEDTAVYYCNADVIRRGGSRYSTGREFDYWGQGTQVTVSS	high polyreactivity
QDQLVESGGGLVQAGRSLRLSCAASGRIIKLYAMGWYRQAPGKERELVAAISKSGGNTYADSVKGRFTISRDNAKNTVYLQMNSLKPEDTAVYYCAASVQSTSDPFDYWGQGTQVTVSS	low polyreactivity
QVQLVESGGGLVQAGGSLRLTCAASGNIFGIYTMGWYRQAPGKEREFFAVISLSGTSTYYADSVKGRFTISRDNAKNTVYLQMKSLKPEDTAVYYCNARTPHNKGRRRAYDYWGQATQVTVSS	high polyreactivity
QVQLVESGGGLVQAGGSLRLSCAASGIIFYYNAMGWYRQAPGKERELVAAISSSGGSTSYADSVKGRFTISRDNAKNTVYLQMNSLKPEDTAVYYCAADSSPAYLGFVGFDYWGQGTQVTVSS	low polyreactivity
QVQLVESGGGLVQAGGSLRLSCAASGSTLWRYAMGWYRQAPGKERELVAGISRGGGSTYYADSVKGRFTISRDNANKTVYLQKNSLKPEDTAVYYCAADDPLYSISTGDYWGQGTQVTVSL	low polyreactivity
QVQLVESGGGLVQAGGSLRLSCAASGRTFTGYAMGWYRQAPGKERELVAAITRSGTRTYYADSVKGRFTISRDNAKNTVYLQMNSLKPEDTAVYYCAAADTQGVSMDYWGQGTQVTVSS	high polyreactivity
QVQLVESGGGLVQAGGSLRLSCAASGIIFWYYAMGWYIQAPGKERELVAAFSSGGSTTYADSVKGRFTISRDNAKNTVYLQINSLKPEDTAVYYCAASVRGIRYDYWGQGTQVTVSS	low polyreactivity
QVHLQESGGGLVQAGGSLRLSCAASRTIFRISDMGSYRQAPGKEREFVAAITYGANTYYADSGKGRFTISRDNAKNSVYLQMNSLKADDTAVYYCAVPPVKETILDYWGQGTQVNVSS	low polyreactivity
QVQLVESGGGLVQAGGSLRLSCAASGFTFHGYAMGWYRQAPGKERELVAAIRSGDRTYYADSVKGRFTISRDNAKNTVYLQMNSLKPEDTAVYYCAVVYGYLYRYSAKYDYWGQGTQVTVSS	low polyreactivity
QVQLVESGGGLVQAGGSLRLSCAASGFTFRYYAMGWSRQAAGKERELVATITGSGGSTYYADSVKGRFTISRDNAKNTVYLQMNSLKPEDTAVYYCNTVWYSDVRYTRFYYWGQGTQVTVSS	high polyreactivity
QVQLVESGGGLLQAGGSLRISCAASGRIFGRYAMGWYRQAPGKERELVASISRGGSTNYADSVKGRFTISRDNAKNTVYLQMNSLKPEDTAVYYCAADLNAYPQRAYDYWGQGTQVTVSS	low polyreactivity
QVQLVESGGGLVQAGGSLRLSCAASGSIFVSYAMGWYRQAPGKERELVAAISSSGTRTYYADSVKGRFTISRDNAKNTVYLQMNSLKPEDTAVYYCAKDSYHTVWGGYWGQGTQVTVSS	high polyreactivity

Sequence	polyreactivity (PSR sort gate)
QVQLVESGGGLVQAGGSLRLSCAASGRTFYTNAMGWYRQAPGKERELVAVISRGGTTYYADSVKGRFTISRDNEKNTVYIQMNSLKPEDTAFYYCAIQSPSGDSSSQMGSWGQGTQVTVSS	low polyreactivity
QVQLVESGGGLVQAGGILRLSCAASGLTFAKNAMGWYRQAPGKERELVAAITTGGSTYYADSVKGRFTISRDNAKNTVYLQMNSLKPEDTAVYYCAAQILVRHIPYYFWGQGSQVTVSS	high polyreactivity
QVQLVDSGGGLVQAGGSLRLSCAASGSIFDPNAMGWYRQAPGKERELVADIDSSDGSTYYADSVKGRFTISRDNAKNTVYLQMNSLKPEDTAVYYCNALSALAVEDGYWGQGTQVTVSS	low polyreactivity
QVQLVESRGGLVQAGGSLRLSCAASGSTFRTYAMGWYRQAPGKERELVADITWRGGSTYYADSVKGRFTISRDNAKNTVYLQMNSLKPEDTAVYYCATDRGPEVVLYDYWGQGTQVTVSS	low polyreactivity
QDQLVESGGGLVQAGGSLRLSCDASGSIFSPYAMGWYRQAPGKEREFVAAITYSGGRTYYADSVKGRFTISRDNPKNTVYFQMNSLKPEDTAVYYCAATYSSYDHYWFVYWGQATQVTVSS	low polyreactivity
QVQLVESGGGLVQAGGSLRLSCAASGNIFFSNAMGWYRQAPGKERELVASISQSGGSTYYADSVKGRFTISRDNAKNTVYLQMNSLKPEDTAVYYCAATQVRRGPAWGRDYWGQGTQVTVSS	low polyreactivity
QVQLVESGGGLVQAGGSLRLSCAASGFIFSYYTMGWYRQAPGKERELVAAISRNGGSTYYADSVKGRFTISRDNAKNTVYLQMNSLKPEDTAVYYCAKRVFNYQRYDYWGQGTQVTVSS	high polyreactivity
QVQLVESGGGLVQAGGSLRLSCAASGSTFPGYDMGWYRQAPGKERELVAAISWRDGRTFYADSVKGRFTISRDNAKNTVYLQMNSLKPEDSAVYYCAAAQRTAYLTYSYKYNYWGQCTQVTVSS	high polyreactivity
QDQLVESGGRLVQAVGSLRLTCAASGRIFRGNGLGWYRQAPGKARELVASISSGGRTNYADSVKGRFTISRDNAKNTVYLQMNSLKPEDTAVYYCSATKSPSLYRWLYDYWGQGTQVTVSS	high polyreactivity
QLQLVESGGGLVQAGGSLRLSCAASGRTFERNAMGWYRQARGQERELVAAITWSGVSTYYADSVKGRFTISRDNAKNTVYLQMNSLKPEDTAVYYCAADWDWRFHRMNYWGQGTQVTVSS	low polyreactivity
QVQLEESGGGLVQAGGSLRLSCAASGNTSPVNAMGWYRQAPGKERELVAAITQSGGSTYYADSLKGRFTISRDNAKITVYFQMNSLKPQDTAVYYCAADVLGPQYWWYDYWGQGTQVTVSS	low polyreactivity
QVQLVESGGGSLRLSCAASALTFGGYTMGWYRQAPGKERELVAAISSSDSTNYADSVKGRFTISRDNAKNTVYLQMNSLKPEDTAVYYCAADSGQWSRYSSFGDEGDSWGQGTEVTVSS	low polyreactivity
QVQLVESGGGLVQAGGSLRLSCAATGSIFNKYAMGWYRQAPGTEREFVAAITQGGGRTYYADSVKGRFTISRDNAKNTVYLQMNSLKPEDTAVYYCAKPAYHSPDYDYWGQGTQVTVSS	high polyreactivity
QVQLVESGGGLVQAGGSLRLSCAASGSIFDFNAMGWYRQAPGKERELVATIRYSGGSTYYADSVKGRFTISRDNAKNTVYLQMNSLKPEDTAVYYCIFRSPSYEYDYWGQGTQVTVSS	low polyreactivity
QVQLVESGGGLVQAGGSLRLSCAASGITFPYYAMGWYRQAPGKERELVASINRSGGTNYADSVKGRFTISRDNAKNTVYLPMNSLKPVDTAVYYCAAPGRYGEYDYWGQGTQVNVSS	low polyreactivity
QVQLVESGGVLVQAGGSLRLSCAASGSTFTYNAMGWYRQAPGKEREFVAANSVGGGITYYADSVKGRFTISRDYAKNTVYLQMKSLKPEDTAVYYCAADGEYPHSEDFEYWGQGTQVTVSS	low polyreactivity
QVQLVESGGGLVQAGGSLRLSCAASARTFGVYAMGWYRQAPGKERELVAAISKSDGSTYYADSVKGRFTISRDNAKITVYLQMNSLKPEDTAVYYCATVTLHQRDTQDDFWGQGTQVTVSS	low polyreactivity
QVQHVESGGGLVQAGCSLRLSCAASGRTFTYYAMGWYRQARGKESELVATISWRGSSTYYADSVKGRFTISRDNAKNTVYLQMNSLKPEDTAFYYCAARTYRWGYEDNYWGQGTQVTVSS	high polyreactivity
QVQLVESAGGLVQAGGSLRLSCAASGRIFSAYAMRWYRQARGKERQLVAAITWSGANTDYADSVKGRFTISRDNAKNTVYLQMTSLKPEDTAVYYCNASFGRDSAYDYWGQGTQVTVSS	low polyreactivity
QVQLVESGGGLVQAGGSLRLSCAASGRIFFLYAMAWYRQAPGKEREFVAAISSSGGSTYYADSVKGRFTISRDNAKNTVYLKMNSLKPEDTAVYYCNADATWSGYIVSYDYWGQGTQVTVSS	low polyreactivity
QVQLVESGGGLVQAGGSLRLSCAASGGIFTIYAMGWYRQAPGKETELVASITGGSGSTYYADSVKGRFTISRDNAKNTVYLQMNSLKPEDTAVYYCARETYRRYGAYDYWGQGTQVTVSS	low polyreactivity
